Our source for the Kd values is article PMC2699419 (2007).

Assay [1] addresses T1, GM-CSF receptor alpha chain (Balb/c form, Asp227; on Ba/F3 cells expressing beta chain) (Mus musculus, UniProt Q00941).
T1 chain: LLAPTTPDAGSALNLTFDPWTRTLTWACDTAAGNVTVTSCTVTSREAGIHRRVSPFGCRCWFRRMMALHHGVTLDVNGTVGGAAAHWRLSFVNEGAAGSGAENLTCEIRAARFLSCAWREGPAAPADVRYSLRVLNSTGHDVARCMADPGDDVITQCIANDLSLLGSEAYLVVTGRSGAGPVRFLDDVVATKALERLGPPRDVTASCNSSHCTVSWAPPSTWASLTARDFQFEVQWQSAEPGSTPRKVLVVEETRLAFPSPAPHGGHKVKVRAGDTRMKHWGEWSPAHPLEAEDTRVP
The experiment in a line: flow cytometry cell binding, non-linear regression. Background: A flow cytometer gives signals particle by particle.

Assay [2] concerns the target T2, GM-CSF receptor alpha chain (C57BL/6 form, Gly227; on Ba/F3 cells expressing beta chain) (Mus musculus, UniProt Q00941).
T2 chain: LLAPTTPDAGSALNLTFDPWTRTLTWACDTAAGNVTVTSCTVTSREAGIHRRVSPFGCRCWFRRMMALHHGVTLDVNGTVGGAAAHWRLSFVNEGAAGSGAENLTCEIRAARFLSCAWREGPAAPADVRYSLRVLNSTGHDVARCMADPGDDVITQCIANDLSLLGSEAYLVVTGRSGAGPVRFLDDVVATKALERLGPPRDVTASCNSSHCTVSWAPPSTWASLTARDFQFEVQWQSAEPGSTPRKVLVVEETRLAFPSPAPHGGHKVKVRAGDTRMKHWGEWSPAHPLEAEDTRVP
The experiment in a line: flow cytometry cell binding, non-linear regression.

B1: GM-CSF-Fc fusion (GM-Fc) (protein)
chain: APTRSPITVTRPWKHVEAIKEALNLLDDMPVTLNEEVEVVSNEFSFKKLTCVQTRLKIFEQGLRGNFTKLKGALNMTASYYQTYCPPTPETDCETQVTTYADFIDSLKTFLTDIPFECKKPGQK
modifications: GM-CSF fused to mutated human IgG1 Fc, Ba/F3 cells co-expressing beta chain
B1: the dissociation constant (Kd) turned out to be 15.6 nM in assay [1] and 19.6 nM in assay [2].

The Kd is the constant that tells how readily two partners part at equilibrium.
